Source: patent US20040265963A1 (UNIVERSITY OF FLORIDA RESEARCH FOUNDATION, published 2004)
Ends that are not written are not given here. * marks the point of attachment. Biotin = O=C1N[C@H]2[C@H](CS[C@H]2CCCCC(=O)*)N1

Key:
Assay in all cases: ELISA, biotinylated JAK2 WT on plate-coated control peptide (FIG. 1A)
[1] = biological target: T1, CDK-2 cyclin box peptide (cyclin-dependent kinase, cyclin box peptide 41-61)
T1 construct: Control peptide; also called CDK 41-61
T1 peptide: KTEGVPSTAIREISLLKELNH

MuIFN-γ(95-125) peptide = biological target: T2, MuIFN-γ(95-125) peptide (murine)
T2 construct: Control peptide; numbering is on the mature form of murine IFN-γ
T2 peptide: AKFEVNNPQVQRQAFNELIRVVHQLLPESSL

[2] = biological target: T3, VEGFR peptide (vascular endothelial growth factor receptor autophosphorylation peptide VEGFR 1208-1222)
T3 construct: Control peptide
T3 peptide: SSDVRYVNAFKFM

Measured: binding result

B1: biotinylated JAK2 WT peptide (JAK2 autophosphorylation peptide, residues 1001-1013, LPQDKEYYKVKEP) (peptide)
peptide: Biotin-LPQDKEYYKVKEP
notes: Synthetic peptide, biotin incorporated at the N-terminus during synthesis; not phosphorylated at Y1007; also called wild type JAK2 peptide; unphosphorylated JAK2 WT
no binding: all assays above
